This note sets out measurements from paper PMC4091690, “A Broadly Conserved G-Protein-Coupled Receptor Kinase Phosphorylation Mechanism Controls Drosophila Smoothened Activity” (PLoS Genetics, 2014).

Assay [1] addresses Smo^SD.c12D (Smo^SD with Gprk2 phosphorylation clusters 1 and 2 changed to Asp), C-terminally tagged with GFP10 or RLucII (UniProt P91682). Kind of assay: BRET. The following applies: S2 cells, Luc + GFP10 tagged pair, read off a plot. For orientation: BRET reads energy transfer from a luciferase to a nearby fluorophore.
Assay [2] concerns the target T1, Smo^core (Drosophila Smoothened amino acids 1-663), C-terminally tagged with GFP10 (Drosophila, UniProt P91682 32-663).
T1 construct: signal peptide in the construct; Smoothened (Smo), Drosophila melanogaster, amino acids 1-663, truncated just after the third Gprk2 phosphorylation cluster; also called Smo^core-GFP10; source: S2-R+ cells, transfected (pRmHa3.puro, induced with CuSO4), in intact cells; not shown: GFP10, C-terminal, kept
T1 sequence (looked up): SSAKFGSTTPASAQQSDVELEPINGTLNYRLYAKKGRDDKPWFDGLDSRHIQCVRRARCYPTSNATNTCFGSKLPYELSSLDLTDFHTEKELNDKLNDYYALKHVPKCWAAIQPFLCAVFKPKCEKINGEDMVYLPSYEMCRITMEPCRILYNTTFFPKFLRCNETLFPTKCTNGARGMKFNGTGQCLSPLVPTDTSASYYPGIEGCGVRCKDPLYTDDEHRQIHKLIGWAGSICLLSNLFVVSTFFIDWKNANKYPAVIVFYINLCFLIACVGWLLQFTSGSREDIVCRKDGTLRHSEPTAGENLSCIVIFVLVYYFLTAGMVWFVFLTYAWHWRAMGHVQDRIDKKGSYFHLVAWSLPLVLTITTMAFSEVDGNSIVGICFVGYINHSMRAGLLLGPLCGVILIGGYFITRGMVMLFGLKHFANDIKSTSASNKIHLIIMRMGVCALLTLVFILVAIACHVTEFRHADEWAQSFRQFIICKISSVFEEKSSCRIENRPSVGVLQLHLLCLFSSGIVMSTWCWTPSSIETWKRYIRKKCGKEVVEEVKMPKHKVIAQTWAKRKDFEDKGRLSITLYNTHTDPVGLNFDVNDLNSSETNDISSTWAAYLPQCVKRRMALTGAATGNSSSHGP
Nature of the assay: FRET or BRET; BRET in intact S2-R+ cells between C-terminally GFP10-tagged truncated Smo variants (300 ng) and Cos2-RLucII (75 ng), myc-Fu (75 ng) co-transfected; cells treated with control (beta-gal), gprk2 or smo 3'UTR dsRNA, without or with myc-Gprk2; net BRET. The following applies: partners not purified.

On to “Smo^SD (PKA- and CKI-phosphomimetic form of Drosophila Smoothened), C-terminally tagged with GFP10 or Renilla luciferase II (from UniProt P91682) S604D; T606D; T610D; T612D; S626D; S627D; T629D; S633D; S634D; T635D”, for which the response turned out to be 170 in assay [1] (dsRNA targeting β-gal (control), parent: est. 100) and 160 in assay [1] (gprk2 dsRNA, parent: est. 67).

B1: Costal-2 (Cos2), C-terminally tagged with Renilla luciferase II (natural protein, Drosophila, UniProt O16844 1-1201, looked up)
chain: MEIPIQVAVRIFPHRELKDLLRSFGPTEPKKDAQAVDEGADSKDSEAQVPAAEKDNPSISETDPNGNAEQDSAADSKTIPDANGNDSGQKDYPDSAYCVQAIPISASALGLPSALPGGDPMDSIAAGLIQVGPHTVPVTHALPSSSSQEQVYHQTVFPLITLFLEGFDASVVTYGQRGQGKSYTLYGNVQDPTLTDSTEGVVQLCVRDIFSHISLHPERTYAINVGFVEICGGDVCDLLGMGNIHCTNVDAVFHWLQVGLSARQSLPAHTLFTLTLEQQWVSKEGLLQHRLSTASFSDLCGTERCGDQPPGRPLDAGLCMLEQVISTLTDPGLMYGVNGNIPYGQTTLTTLLKDSFGGRAQTLVILCVSPLEEHLPETLGNLQFAFKVQCVRNFVIMNTYSDDNTMIVQPAEPVPESNSSAGPLSQAGPGDNFGLQFAASQWSKLVTNAEGLFSKLIDSKLITEVEKEQIEEWLFLKQECEECLSSTEAMRQQKQLVPILEAEEPEDVNSEAANSESPNSDNENDTDNESHRPDLDDKIESLMEEFRDKTDALILEKHAEYLSKHPKAVMQSQDREIEAQPPEENGDDRKVSIGSRRRSVQPGASLSTAELAMLNRVASQQPPPPIDPESVVDPLESSSGEGIRQAALAAAAATAPIEQLQKKLRKLVAEIEGKQRQLREIEETIQVKQNIIAELVKNSDTRSHAKQRFHKKRAKLEAECDKAKKQLGKALVQGRDQSEIERWTTIIGHLERRLEDLSSMKHIAGESGQKVKKLQQSVGESRKQADDLQKKLRKECKLRCQMEAELAKLRESRETGKELVKAQGSPEQQGRQLKAVQARITHLNHILREKSDNLEEQPGPEQQETLRHEIRNLRGTRDLLLEERCHLDRKLKRDKVLTQKEERKLLECDEAIEAIDAAIEFKNEMITGHRSIDTSDRIQREKGEQMLMARLNRLSTEEMRTLLYKYFTKVIDLRDSSRKLELQLVQLERERDAWEWKERVLSNAVRQARLEGERNAVLLQRQHEMKLTLMLRHMAEETSASSASYGERALAPACVAPPVQASSDFDYDHFYKGGGNPSKALIKAPKPMPTGSALDKYKDKEQRSGRNIFAKFHVLTRYASAAAAGSSGSTAEESTALIESTTTATATTTSTTTTGAVGKVKDKALVSFRPEQLKRLMPAPTATKVTRQKNKIIIQDASRRN
notes: Costal-2 (Cos2), kinesin-like protein, Drosophila; also called Cos2-Luc; Cos2-RLucII; source: S2-R+ cells, transfected (pRmHa3.puro, induced with CuSO4), in intact cells; not shown: RLucII, C-terminal, kept
Consider B1, for which the “fold increase of net BRET on Gprk2 overexpression against control cells” value in assay [2] is over 2.2 fold.
